Test results taken from US20120005127A1.

Target: IL-1 receptor (human) (UniProt P14778)
Test: cell-based or functional assay

Chain of UniProt P14778 (P14778 18-569): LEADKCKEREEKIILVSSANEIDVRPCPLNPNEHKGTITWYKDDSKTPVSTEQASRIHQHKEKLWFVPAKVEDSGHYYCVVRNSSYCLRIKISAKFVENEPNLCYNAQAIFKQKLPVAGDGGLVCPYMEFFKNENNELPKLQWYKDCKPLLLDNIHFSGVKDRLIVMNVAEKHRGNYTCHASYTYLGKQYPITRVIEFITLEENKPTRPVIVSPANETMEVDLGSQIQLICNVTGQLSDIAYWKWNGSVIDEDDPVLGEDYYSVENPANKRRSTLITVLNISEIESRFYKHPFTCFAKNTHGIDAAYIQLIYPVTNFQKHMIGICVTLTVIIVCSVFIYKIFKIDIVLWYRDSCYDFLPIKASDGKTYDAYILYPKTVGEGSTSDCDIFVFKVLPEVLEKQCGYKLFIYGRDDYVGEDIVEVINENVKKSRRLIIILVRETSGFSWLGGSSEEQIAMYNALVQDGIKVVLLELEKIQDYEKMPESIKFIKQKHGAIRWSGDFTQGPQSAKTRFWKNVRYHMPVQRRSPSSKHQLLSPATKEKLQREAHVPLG

Work on “Kineret® (anakinra) (from UniProt P18510 26-177) (ligand)” yielded an IC50 (pM): inhibition of IL-1β induced production of IL-8 in human whole blood of 53.4 pM.
